Laboratory results taken from article PMC5414174, “DNA replication licensing factor Cdc6 and Plk4 kinase antagonistically regulate centrosome duplication via Sas-6” (Nature Communications, 2017).

B1: GFP-tagged Cdc6 WT [human] / Myc-tagged Sas-6 [human] (parent)
chain 1: MPQTRSQAQATISFPKRKLSRALNKAKNSSDAKLEPTNVQTVTCSPRVKALPLSPRKRLGDDNLCNTPHLPPCSPPKQGKKENGPPHSHTLKGRRLVFDNQLTIKSPSKRELAKVHQNKILSSVRKSQEITTNSEQRCPLKKESACVRLFKQEGTCYQQAKLVLNTAVPDRLPAREREMDVIRNFLREHICGKKAGSLYLSGAPGTGKTACLSRILQDLKKELKGFKTIMLNCMSLRTAQAVFPAIAQEICQEEVSRPAGKDMMRKLEKHMTAEKGPMIVLVLDEMDQLDSKGQDVLYTLFEWPWLSNSHLVLIGIANTLDLTDRILPRLQAREKCKPQLLNFPPYTRNQIVTILQDRLNQVSRDQVLDNAAVQFCARKVSAVSGDVRKALDVCRRAIEIVESDVKSQTILKPLSECKSPSEPLIPKRVGLIHISQVISEVDGNRMTLSQEGAQDSFPLQQKILVCSLMLLIRQLKIKEVTLGKLYEAYSKVCRKQQVAAVDQSECLSLSGLLEARGILGLKRNKETRLTKVFFKIEEKEIEHALKDKALIGNILATGLP
chain 2: MSQVLFHQLVPLQVKCKDCEERRVSIRMSIELQSVSNPVHRKDLVIRLTDDTDPFFLYNLVISEEDFQSLKFQQGLLVDFLAFPQKFIDLLQQCTQEHAKEIPRFLLQLVSPAAILDNSPAFLNVVETNPFKHLTHLSLKLLPGNDVEIKKFLAGCLKCSKEEKLSLMQSLDDATKQLDFTRKTLAEKKQELDKLRNEWASHTAALTNKHSQELTNEKEKALQAQVQYQQQHEQQKKDLEILHQQNIHQLQNRLSELEAANKDLTERKYKGDSTIRELKAKLSGVEEELQRTKQEVLSLRRENSTLDVECHEKEKHVNQLQTKVAVLEQEIKDKDQLVLRTKEAFDTIQEQKVVLEENGEKNQVQLGKLEATIKSLSAELLKANEIIKKLQGDLKTLMGKLKLKNTVTIQQEKLLAEKEEKLQKEQKELQDVGQSLRIKEQEVCKLQEQLEATVKKLEESKQLLKNNEKLITWLNKELNENQLVRKQDVLGPSTTPPAHSSSNTIRSGISPNLNVVDGRLTYPTCGIGYPVSSAFAFQNTFPHSISAKNTSHPGSGTKVQFNLQFTKPNASLGDVQSGATISMPCSTDKENGENVGLESKYLKKREDSIPLRGLSQNLFSNSDHQRDGTLGALHTSSKPTALPSASSAYFPGQLPNS

Variants of: B1
Experiment: co-immunoprecipitation (anti-GFP IP, western blot quantified by ImageJ)
Conditions: with Myc-tagged Sas-6 [human]; HEK293 cells co-transfected; three independent experiments; means ± s.d.; read off a plot

| ratio to parent | Variant |
| --- | --- |
| 1.7 | chain 1 S30A T527A |
| 0.42 | chain 1 S30D T527D |
